What all share (format): binding
Common to all, as to conditions: response relative to ADIFAB2

Experiment [1] can be described thus: Probe fluorescence ratio response to arachidonic acid relative to ADIFAB2. An excerpt: (§1) In an alternate preferred embodiment, the protein is rI-FABP that has Ala substituted for Leu at position 72 (rI-FABP-L72A) with the resulting probe named ADIFAB2. […] Other probes useful in embodiments of the invention are shown in Tables 1-6 and are also described in U.S. application Ser. No. 11/085,792, filed Mar. 21, 2005 which is incorporated herein by reference. The indicated substitutions are with reference to the ADIFAB protein of SEQ ID NO: 2.
(§2) ADIFAB2 also has an altered spectral response, making it especially useful for measurements of FFAu in blood samples (Apple et al, Clinical Proteomics, (2004) 1:41-44, U.S. patent application Ser. No. 10/670,958). The wavelengths at the maximum intensities emitted by these fluorescently-labeled I-FABP's in the absence of FFA is about 420 to 480 nm. The emission wavelengths at the maximum intensities emitted by these fluorescently-labeled I-FABP's with FFA bound are between about 495 to 580 nm. Experiments typically involve measuring the fluorescence response within both emission maxima or at wavelengths for which the effect of interfering molecules such as hemoglobin can be eliminated as described in U.S. application Ser. No. 10/670958 and PCT/US2004/030521 and the calculation of the ratio ‘R’ of the two fluorescence intensities. The baseline value for this ratio, measured in the absence of analyte, is designated R0.
(§3) The intensity ratio (“R” value) is determined as follows. The ratio is calculated using the following formula: R=Fλ1/Fλ2 wherein, Fλ1 is the measured fluorescence intensities (intensity of sample with probe present minus intensity of sample without probe present) at wavelength 1 and Fλ2 is the measured fluorescence intensities (intensity of sample with probe present minus intensity of sample without probe present) at wavelength 2. Then, for a given probe, ΔR, the difference in R value between the measurement in the presence of the test compound (agent) and in the absence of the test compound (agent), is calculated as follows: ΔR=R+agent−R0 In some embodiments, the ΔR value may then be compared to some reference, for example, an agent with a known affinity for a given probe, by ΔR/ΔRreference. Measurements of fluorescence intensities are obtained using standard techniques.

Experiment [2] in a line: Probe fluorescence ratio response to linolenic acid relative to ADIFAB2.
Excerpt: as §1, §2, §3

Experiment [3] is described as follows: Probe fluorescence ratio response to linoleic acid relative to ADIFAB2.
Excerpt: as §1, §2, §3

Experiment [4] can be described thus: Probe fluorescence ratio response to oleic acid relative to ADIFAB2.
Excerpt: as §1, §2, §3

Experiment [5] can be described thus: Probe fluorescence ratio response to palmitic acid relative to ADIFAB2.
Excerpt: as §1, §2, §3

Several values for one entry are separate records, joined by “and”; a condition that tells them apart may be missing. Identical values can stand only once.

B1: 117E, 72A (protein, listed as Rattus norvegicus)
chain: AFDGTWKVDRNENYEKFMEKMGINVVKRKLGAHDNLKLTITQEGNKFTVKESSNFRNIDVVFELGVDFAYSAADGTELTGTWTMEGNKLVGKFKRVDNGKELIAVREISGNELIQTETYEGVEAKRIFKKE
modifications: PEPTIDE (1)...(131) wild-type rat intestinal fatty acid binding protein
Regarding B1, the “DR/DR AA” value in experiment [1] (arachidonic acid) was 0.65 and 0.656. Moreover, in experiment [2], the “DR/DR LNA” value is 0.64 and 0.638. Besides, the “DR/DR LA” value in experiment [3] is 0.76 and 0.753. For the same molecule, the “DR/DR OA” value in experiment [4] is 0.65 and 0.659. Besides, in experiment [5], the “DR/DR PA” value was 0.40 and 0.402.

B2: 117I, 72A (protein, listed as Rattus norvegicus)
chain: AFDGTWKVDRNENYEKFMEKMGINVVKRKLGAHDNLKLTITQEGNKFTVKESSNFRNIDVVFELGVDFAYSAADGTELTGTWTMEGNKLVGKFKRVDNGKELIAVREISGNELIQTITYEGVEAKRIFKKE
modifications: PEPTIDE (1)...(131) wild-type rat intestinal fatty acid binding protein
B2: the “DR/DR AA” value in experiment [1] (arachidonic acid) is 0.68 and 0.674. Also, the “DR/DR LNA” value in experiment [2] was 0.68 and 0.666. Also, in experiment [3], the “DR/DR LA” value was 0.80 and 0.789. Also, in experiment [4], the “DR/DR OA” value is 0.67 and 0.676. The “DR/DR PA” value in experiment [5] was 0.41 and 0.408.

B3: 117F, 72A (protein, listed as Rattus norvegicus)
chain: AFDGTWKVDRNENYEKFMEKMGINVVKRKLGAHDNLKLTITQEGNKFTVKESSNFRNIDVVFELGVDFAYSAADGTELTGTWTMEGNKLVGKFKRVDNGKELIAVREISGNELIQTFTYEGVEAKRIFKKE
modifications: PEPTIDE (1)...(131) wild-type rat intestinal fatty acid binding protein
For the molecule B3, the “DR/DR AA” value in experiment [1] (arachidonic acid) is reported as 1.33. The “DR/DR LNA” value in experiment [2] is recorded as 1.38. Also, the “DR/DR LA” value in experiment [3] came out at 1.36. For the same molecule, the “DR/DR OA” value in experiment [4] came out at 1.37. Besides, in experiment [5], the “DR/DR PA” value turned out to be 1.20.

B4: 117G, 72A (protein, listed as Rattus norvegicus)
chain: AFDGTWKVDRNENYEKFMEKMGINVVKRKLGAHDNLKLTITQEGNKFTVKESSNFRNIDVVFELGVDFAYSAADGTELTGTWTMEGNKLVGKFKRVDNGKELIAVREISGNELIQTGTYEGVEAKRIFKKE
modifications: PEPTIDE (1)...(131) wild-type rat intestinal fatty acid binding protein
Turning to B4, the “DR/DR AA” value in experiment [1] (arachidonic acid) is 0.88. Moreover, in experiment [2], the “DR/DR LNA” value turned out to be 0.85. Further, in experiment [3], the “DR/DR LA” value was 0.92. For the same molecule, in experiment [4], the “DR/DR OA” value is listed as 0.84. Further, the “DR/DR PA” value in experiment [5] is reported as 0.39.

B5: 117M, 72A (protein, listed as Rattus norvegicus)
chain: AFDGTWKVDRNENYEKFMEKMGINVVKRKLGAHDNLKLTITQEGNKFTVKESSNFRNIDVVFELGVDFAYSAADGTELTGTWTMEGNKLVGKFKRVDNGKELIAVREISGNELIQTMTYEGVEAKRIFKKE
modifications: PEPTIDE (1)...(131) wild-type rat intestinal fatty acid binding protein
For the molecule B5, the “DR/DR AA” value in experiment [1] (arachidonic acid) was determined as 1.27. Further, the “DR/DR LNA” value in experiment [2] is 1.36. Moreover, in experiment [3], the “DR/DR LA” value was determined as 1.31. Also, the “DR/DR OA” value in experiment [4] stood at 1.32. Moreover, the “DR/DR PA” value in experiment [5] came to 1.14.

B6: 117Q, 72A (protein, listed as Rattus norvegicus)
chain: AFDGTWKVDRNENYEKFMEKMGINVVKRKLGAHDNLKLTITQEGNKFTVKESSNFRNIDVVFELGVDFAYSAADGTELTGTWTMEGNKLVGKFKRVDNGKELIAVREISGNELIQTQTYEGVEAKRIFKKE
modifications: PEPTIDE (1)...(131) wild-type rat intestinal fatty acid binding protein
For B6, the “DR/DR AA” value in experiment [1] (arachidonic acid) was 1.21 and 1.214. In addition, in experiment [2], the “DR/DR LNA” value was 1.24 and 1.236. Besides, the “DR/DR LA” value in experiment [3] was 1.37 and 1.374. Moreover, the “DR/DR OA” value in experiment [4] was 1.13 and 1.134. Further, the “DR/DR PA” value in experiment [5] is 0.63 and 0.631.

B7: 117K, 72A (protein, listed as Rattus norvegicus)
chain: AFDGTWKVDRNENYEKFMEKMGINVVKRKLGAHDNLKLTITQEGNKFTVKESSNFRNIDVVFELGVDFAYSAADGTELTGTWTMEGNKLVGKFKRVDNGKELIAVREISGNELIQTKTYEGVEAKRIFKKE
modifications: PEPTIDE (1)...(131) wild-type rat intestinal fatty acid binding protein
With B7, the “DR/DR AA” value in experiment [1] (arachidonic acid) is 0.34. The “DR/DR LNA” value in experiment [2] was 0.37. The “DR/DR LA” value in experiment [3] is 0.43. The “DR/DR OA” value in experiment [4] was 0.04. In experiment [5], the “DR/DR PA” value came out at 0.22.

B8: 117L, 72A (protein, listed as Rattus norvegicus)
chain: AFDGTWKVDRNENYEKFMEKMGINVVKRKLGAHDNLKLTITQEGNKFTVKESSNFRNIDVVFELGVDFAYSAADGTELTGTWTMEGNKLVGKFKRVDNGKELIAVREISGNELIQTLTYEGVEAKRIFKKE
modifications: PEPTIDE (1)...(131) wild-type rat intestinal fatty acid binding protein
As to B8, in experiment [1] (arachidonic acid), the “DR/DR AA” value came out at 0.38. Further, the “DR/DR LNA” value in experiment [2] was found to be 0.39. In experiment [3], the “DR/DR LA” value is 0.43. The “DR/DR OA” value in experiment [4] is given as 0.35. The “DR/DR PA” value in experiment [5] is on record as 0.29.

B9: 102D, 72A (protein, listed as Rattus norvegicus)
chain: AFDGTWKVDRNENYEKFMEKMGINVVKRKLGAHDNLKLTITQEGNKFTVKESSNFRNIDVVFELGVDFAYSAADGTELTGTWTMEGNKLVGKFKRVDNGKEDIAVREISGNELIQTYTYEGVEAKRIFKKE
modifications: PEPTIDE (1)...(131) wild-type rat intestinal fatty acid binding protein
Take B9: in experiment [1] (arachidonic acid), the “DR/DR AA” value came out at 0.52. For the same molecule, the “DR/DR LNA” value in experiment [2] was determined as 0.61. In addition, in experiment [3], the “DR/DR LA” value is given as 0.63. The “DR/DR OA” value in experiment [4] is 0.59. Moreover, in experiment [5], the “DR/DR PA” value was found to be 0.28.

B10: 117P, 72A (protein, listed as Rattus norvegicus)
chain: AFDGTWKVDRNENYEKFMEKMGINVVKRKLGAHDNLKLTITQEGNKFTVKESSNFRNIDVVFELGVDFAYSAADGTELTGTWTMEGNKLVGKFKRVDNGKELIAVREISGNELIQTPTYEGVEAKRIFKKE
modifications: PEPTIDE (1)...(131) wild-type rat intestinal fatty acid binding protein
With B10, the “DR/DR AA” value in experiment [1] (arachidonic acid) is given as 0.80. In experiment [2], the “DR/DR LNA” value was 0.83. Also, the “DR/DR LA” value in experiment [3] amounted to 0.86. Also, in experiment [4], the “DR/DR OA” value turned out to be 0.73. The “DR/DR PA” value in experiment [5] is on record as 0.38.

B11: 74F, 72A (protein, listed as Rattus norvegicus)
chain: AFDGTWKVDRNENYEKFMEKMGINVVKRKLGAHDNLKLTITQEGNKFTVKESSNFRNIDVVFELGVDFAYSAAFGTELTGTWTMEGNKLVGKFKRVDNGKELIAVREISGNELIQTYTYEGVEAKRIFKKE
modifications: PEPTIDE (1)...(131) wild-type rat intestinal fatty acid binding protein
With B11, the “DR/DR AA” value in experiment [1] (Arachidonic acid) was determined as 1.02; in experiment [1] (arachidonic acid) it was 0.44. Besides, the “DR/DR LNA” value in experiment [2] is 1.36 and 1.04. For the same molecule, the “DR/DR LA” value in experiment [3] was 1.19 and 0.67. Besides, the “DR/DR PA” value in experiment [5] is 1.23 and 0.93.

B12: 117N, 72A (protein, listed as Rattus norvegicus)
chain: AFDGTWKVDRNENYEKFMEKMGINVVKRKLGAHDNLKLTITQEGNKFTVKESSNFRNIDVVFELGVDFAYSAADGTELTGTWTMEGNKLVGKFKRVDNGKELIAVREISGNELIQTNTYEGVEAKRIFKKE
modifications: PEPTIDE (1)...(131) wild-type rat intestinal fatty acid binding protein
Take B12: in experiment [1] (arachidonic acid), the “DR/DR AA” value is recorded as 1.33. Besides, the “DR/DR LNA” value in experiment [2] was 1.37. The “DR/DR LA” value in experiment [3] was found to be 1.35. Moreover, the “DR/DR OA” value in experiment [4] was determined as 1.40. Further, in experiment [5], the “DR/DR PA” value amounted to 1.19.

B13: 117H, 72A (protein, listed as Rattus norvegicus)
chain: AFDGTWKVDRNENYEKFMEKMGINVVKRKLGAHDNLKLTITQEGNKFTVKESSNFRNIDVVFELGVDFAYSAADGTELTGTWTMEGNKLVGKFKRVDNGKELIAVREISGNELIQTHTYEGVEAKRIFKKE
modifications: PEPTIDE (1)...(131) wild-type rat intestinal fatty acid binding protein
For B13, in experiment [1] (arachidonic acid), the “DR/DR AA” value was 0.90 and 0.913. Besides, the “DR/DR LNA” value in experiment [2] is 0.94 and 0.924. Besides, the “DR/DR LA” value in experiment [3] was 1.06 and 1.056. Further, the “DR/DR OA” value in experiment [4] was 1.01 and 1.012. For the same molecule, the “DR/DR PA” value in experiment [5] is 0.63 and 0.659.

(Values after US20060257938A1, “Method of screening for drugs that block ligand binding to a lipid binding protein” (priority 2005, published 2006).)
